In patent publication US6673571B2, “Polypeptides having aminopeptidase activity and nucleic acids encoding same” (Novozymes Biotech, Inc., priority 1997, dated 2004):

Experiments:
[1] = pH optimum / pH profile with Ala-pNA; type: biochemical; settings: room temperature
Protocol: The pH optimum for the 67 kDa aminopeptidase I was determined using the following protocol. The buffer solutions at different pH's were prepared by adding distilled water to 4.25 g of sodium acetate and 3.78 g of Tris (free base) to a final volume of 250 ml and adjusting the pH to 8.5, 8.0, 7.5, 7.0, 6.5, 5.80, 5.5, and 5.0 with 36.5-38% HCl. Aliquots of 10 ml were removed at each pH. A 20 μl volume of a 100 mg/ml solution of Ala-pNA in DMSO was added to 980 μl of each buffer solution. The pH was then determined to be 8.5, 8.0, 7.57, 7.30, 7.09, 6.68, 6.14, and 5.25 for the buffer solutions after the addition of the substrate. Another solution of substrate at a concentration of 2 mg/ml was prepared at the various pHs. The reaction was initiated by the addition of 10 μl of enzyme solution, diluted 5-fold in 10 mM Tris-HCl pH 7.5, to 200 μl of substrate at the various pHs at room temperature and monitored at 405 nm.
There was no detectable autohydrolysis of Ala-pNa in the pH range 5.25-8.5.

[2] = Temperature stability (residual activity after 20 minutes incubation); type: physicochemical; settings: pH 7.5
Protocol: The temperature stability of aminopeptidase I was determined by incubating the enzyme for 20 minutes in 50 mM sodium phosphate pH 7.5 buffer at temperatures in the range of 35° C. to 55° C. followed by cooling on ice and measuring the residual activity using Ala-pNA as substrate at pH 7.5 as described above.

soy protein = test: Degree of hydrolysis (DH) in soy protein hydrolysis, OPA method; type: biochemical, soy bean; settings: for DH: 50° C., 18 hours
Protocol: The degree of hydrolysis (DH) of the soy protein was determined as follows. The DH, defined as described in by Adler-Nissen (1986, Enzymic Hydrolysis of Food Proteins, Elsevier Applied Science Publishers), was determined by reaction of the supernatant with OPA (ortho-phthaldialdehyde, Sigma Chemical Co., St. Louis, Mo.) essentially as described by Church et al., 1983, Journal of Dairy Science 66: 1219-1227 with correction factors as determined by Adler-Nissen, 1979, Agricultural and Food Chemistry 27: 1256-1262.
The aminopeptidase I was added in increasing dosage to either a low-background (1.5% of the substrate protein) or a high background (6% of the substrate protein) of FLAVOURZYME 1000L™ and a dosage of ALCALASE 2.4L® of 1.5% of the substrate protein. The experiments were carried out as described below:
Hydrolysis was carried out on a 10 ml scale at 50° C. for 18 hours. The initial pH was 7 with no pH readjustment during hydrolysis. Inactivation of the enzyme was carried out at 85° C. for 3 minutes in a water bath. The substrate concentration was 2% protein from soy bean meal. The substrate was heat treated in a water bath at 85° C. for 3 minutes. The enzymes used with FLAVOURZYME 1000L™ and ALCALASE 2.4L® described above were crude Sphingomonas capsulata aminopeptidase I powder (see Example 1) and the purified Sphingomonas capsulata aminopeptidase I described in Example 4.

[3] = Specific activity in glycine aminopeptidase units (GAPU); type: biochemical; settings: Gly-pNA, 50 mM Tris-HCl pH 7.5, 37° C.
Protocol: The enzymes used with FLAVOURZYME™ and ALCALASE® were crude Sphingomonas capsulata aminopeptidase I powder and purified Sphingomonas capsulata aminopeptidase I as in Example 7. Glycine aminopeptidase unit (GAPU) of both crude and purified enzyme was measured in 50 mM Tris-HCl pH 7.5 buffer at 37° C. using Gly-pNA as a substrate. Aminopeptidase I was assayed at 37° C. in 50 mM Tris-HCl (pH 7.5). Gly-pNA (Bachem Feinchemikalien AG, Bubendorf, Switzerland) was dissolved in 40% dioxane at a concentration of 2.5 mg/ml and 1.5 volume of 50 mM Tris-HCl (pH 7.5) was added to a substrate concentration of 1 mg/ml. The enzyme sample was diluted in 500 μl of the same buffer and 100 μl of the substrate solution was added and incubated at 37° C. for 5 minutes. The reaction was terminated by the addition of 300 μl of 1 M sodium acetate pH 4.0 buffer. For the blank reaction, the stop solution was added to the enzyme solution and incubated for 5 minutes at 37° C., and then the substrate solution was added. The absorbance at 410 nm was measured for both the sample and blank reactions. The enzyme activity was calculated using the molecular extinction coefficient at 410 nm for pNA as 9480 M^−1 cm^−1. One unit of GAPU was defined as the quantity of enzyme that hydrolyses 1 micromole of Gly-pNA at 37° C. per minute under the conditions described above. […]

gelatin = test: Degree of hydrolysis (DH) in gelatin hydrolysis, OPA method; type: biochemical; settings: 50° C., 18 hours
Protocol: The aminopeptidase I was added in increased dosage to either a low or a high background of FLAVOURZYME™ and ALCALASE® as performed in Example 7.
Hydrolysis was carried out in 200 μl reactions in Eppendorf tubes. The substrate gelatin (Merck) was dissolved in distilled water at 85° C. for 5 minutes. After cooling to 50° C., the pH was adjusted to 6.5. The final gelatin concentration was adjusted to 2% after the addition of enzymes. The substrate concentration in each reaction was calculated to be 4 mg.
The hydrolysis reactions were performed at 50° C. for 18 hours. Enzymes were inactivated at 85° C. for 5 minutes followed by centrifugation. DH was calculated on the basis of the total protein content of hydrolysate using the OPA method.

[4] = Substrate specificity: initial rates of hydrolysis of para-nitroanilides; type: biochemical; settings: Gly-Phe-pNA versus Ala-Ala-pNA
[5] = pH optimum / pH profile with Ala-pNA; type: biochemical

B1: Sphingomonas capsulata aminopeptidase I: purified aminopeptidase of 67 kDa from Sphingomonas capsulata IFO 12533; deduced amino acid sequence SEQ ID NO:2 (protein)
chain: MRKTPQGIGLLSALSTSTLALATLILAQPALAQVQPASNSRPMAVPIAHGVPDAQDVPYPGTIGLQIDATDLATGAFRVVETVPVAADAKELILQLPAWLPGEHGNRGPVAELAGITFEAKGQKLAWTRDPVEVNAFHIPLPAGTSEVVARFIHTSPLRDSEGRITVTREMLNVQWEKMSLYPAGHYVRQIKVRPTVSFPQGWTVFTALDGKTQSGAGNTVTWAETDYETLVDSPIFAGLYAARHDLGHNVYFDLVADKPELLAIKPENLAAYRNLADEAVGAFGARHFDHYDFLLALTDRMGSIGLEHHRSSENQQEPKSLTDWAAYDWDRNVIAHEFSHSWDGKYRRSAKLWTPDYRQPMQDNLLWVYEGQTQFWGLVLAARSGVQSKDVVLGSLANYAGTFTQTAGRDWRSVEDTTMDPIFAARKPKPYSSLTRNEDYYTEGALVWLEADQIIRDGTGGKKGLDDFAKAFFGVRDGDWGVLTYEFDDVVKTLNGVYPYDWATFLKTRLQTPGQPVPLGGIERGGYKLEFKDEPNPYDKARMADAKVLSLFNSLGVTLDKDGKVTASRWDGPAFKAGLVSGMQVMAVNGDAYDADKLKGAITNAKTGNPGAGRPIELLVKRDDRFVTLPITYADGLRWPWLVRTAPGTAPTGLDKLLAPHASKLPVGKAAK
[1]; pH 5.25, Ala-pNA
  Relative activity (%): 24.9%
[1]; pH 6.14, Ala-pNA
  Relative activity (%): 56.4%
[1]; pH 6.68, Ala-pNA
  Relative activity (%): 78.4%
[1]; pH 7.09, Ala-pNA
  Relative activity (%): 99.4%
[1]; pH 7.30, Ala-pNA
  Relative activity (%): 100%
[1]; pH 7.57, Ala-pNA
  Relative activity (%): 92.8%
[1]; pH 8.0, Ala-pNA
  Relative activity (%): 61%
[1]; pH 8.49, Ala-pNA
  Relative activity (%): 24.2%
[2]; 45° C.
  residual activity: approximately 60%
[2]; 50° C.
  residual activity: completely inactivated
[2]; up to 40° C.
  temperature stability: approximately 100%
Soy protein; 1.5% FLAVOURZYME +67 kDa AP
  % Relative increase in DH: 34.8%
Soy protein; 1.5% FLAVOURZYME +67 kDa AP versus 6.0% FLAVOURZYME
  % Relative increase in DH: −2.2%
Soy protein; 6.0% FLAVOURZYME +67 kDa AP
  % Relative increase in DH: 14.2%
Soy protein; added to high dosage (6%) FLAVOURZYME + 1.5% ALCALASE, from DH 61%
  DH: 71%
Soy protein; added to low dosage (1.5%) FLAVOURZYME + 1.5% ALCALASE, from DH 44%
  DH: 61-62%
Soy protein; high dosage of FLAVOURZYME, (71−61)/(77−61)×100%
  share of the DH increasing effect of the crude enzyme: 63%
Soy protein; low dosage of FLAVOURZYME, (62−44)/(72−44)×100%
  share of the DH increasing effect of the crude enzyme: 64%
Soy protein; relative to 1.5% + 0.5% extra FLAVOURZYME, (62−48)/(72−48)×100%
  effect of adding aminopeptidase I as % of the effect of the crude enzyme: 58%
Soy protein; relative to 6% + 1% extra FLAVOURZYME, (71−63)/(77−63)×100%
  effect of aminopeptidase I as % of the effect of the crude enzyme: 57%
[3]
  specific activity: 6.45 GAPU/mg
gelatin; 0.2 U/4 mg gelatin added to low FLAVOURZYME background (2%) + 1% ALCALASE, from DH 38%
  DH: 61%
gelatin; added to 7% FLAVOURZYME + 1% ALCALASE
  DH: 61%
[4]
  hydrolysis of dipeptide substrates: hydrolysed Gly-Phe-pNA more quickly than Ala-Ala-pNA
[5]; Ala-pNA, pH 7.5
  Km: 2500 µM
[5]; pH 5.5, apparent Km and Vmax negative due to activation by substrate
  kinetics of hydrolysis of Ala-pNA: did not follow Michaelis-Menten kinetics
